In US20230340112A1 (published 2023) one finds IC50 and EC50 data, which are given here for one molecule.

Test [1] has as its target T1, cell-surface SIRPα (mDC) (human, UniProt P78324 31-504). Put plainly: FACS blocking of CD47/SIRPα; Donor #298.
Test [2] concerns the target T2, mDC cell surface SIRPα (human, UniProt P78324 31-504). As to the kind of experiment: FACS binding; Donor #298. For orientation: Flow cytometry measures light scatter and fluorescence of single cells or particles in a stream.
In test [3] the target is T2, mDC cell surface SIRPα. Put plainly: FACS binding; Donor #296.
Test [4] addresses T1, cell-surface SIRPα (mDC). Put plainly: FACS blocking of CD47/SIRPα; Donor #296.

T1 sequence (P78324 31-504): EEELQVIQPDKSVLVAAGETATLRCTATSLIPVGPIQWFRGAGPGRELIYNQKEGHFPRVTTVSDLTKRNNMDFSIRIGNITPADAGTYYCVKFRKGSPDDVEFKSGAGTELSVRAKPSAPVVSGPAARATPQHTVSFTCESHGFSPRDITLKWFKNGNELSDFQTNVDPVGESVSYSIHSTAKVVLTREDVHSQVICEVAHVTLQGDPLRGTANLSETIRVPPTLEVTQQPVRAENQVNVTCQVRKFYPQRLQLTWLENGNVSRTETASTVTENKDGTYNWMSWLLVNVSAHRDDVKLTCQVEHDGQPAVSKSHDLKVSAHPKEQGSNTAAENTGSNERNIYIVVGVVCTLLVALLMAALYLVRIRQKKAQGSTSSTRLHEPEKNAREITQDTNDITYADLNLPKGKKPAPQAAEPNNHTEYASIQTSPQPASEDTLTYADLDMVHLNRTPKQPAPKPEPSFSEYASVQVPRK
T2 sequence (P78324 31-504): as above

B1: OSE-172 (antibody, V domains shown)
VH: EVQLVQSGAEVKKPGESLRISCKASGYSFTSYWVHWVRQMPGKGLEWMGNIDPSDSDTHYSPSFQGHVTLSVDKSISTAYLQLSSLKASDTAMYYCVRGGTGTLAYFAYWGQGTLVTVSS
VL: DVVMTQSPLSLPVTLGQPASISCRSSQSLVHSYGNTYLYWFQQRPGQSPRLLIYRVSNRFSGVPDRFSGSGSGTDFTLKISRVEAEDVGVYYCFQGTHVPYTFGGGTKVEIKR
For orientation: IC50 means the midpoint of a concentration-inhibition curve. Higher therefore signals weaker potency. One may read the EC50 as the concentration at which the effect is half-maximal. Lower therefore signals higher potency in that assay. For the molecule B1, the IC50 with cell-surface SIRPα (mDC) [1] came to 1.77 nM; with cell-surface SIRPα (mDC) [4] it was 1.25 nM. In addition, the values for the half-maximal effective concentration (EC50) with mDC cell surface SIRPα [2] and with mDC cell surface SIRPα [3] were 1.27 nM and 0.768 nM, respectively.
